The values that follow come from patent publication US20230405140A1, “ANTI-CD56 ANTIBODY-DRUG CONJUGATES AND THEIR USE IN THERAPY” (MCSAF INSIDE ONCOLOGY, priority 2020, published 2023).

One data set relates to primary NK cells. Description: Killing effect on primary NK cells (Annexin V / 7-AAD flow cytometry). The format is cell-based, human. Conditions: for Killing effect on primary NK cells (ADCC): after 4 h of incubation, in words; for Killing effect on primary NK cells: after 4 days of incubation. The procedure: (§1) Primary natural killer cells (NK) and monocytes were obtained from blood of healthy adult volunteers at the Etablissement Français du Sang, according to institutional research protection guidelines agreement N° CA-REC-2019-188, Centre Val de Loire, France. Ficoll density centrifugation step (Eurobio) was performed to isolate peripheral blood mononuclear cells (PBMC).
NK cells were isolated from PBMC by negative selection (NK cell isolation kit human, Miltenyi Biotec) with purity higher than 95%. NK cells were cultured for up to 36 h in RPMI 1640 supplemented with 10% FCS, 1% penicillin and streptomycin, 1% L-glutamine and 100 UI/mL IL-2 at 37° C., 5% CO2 at 1.10^6 cells/mL.

For data set [1], the system named is CD56− cells (CRISPR-MCC cell lines WaGa and MKL-1). Kind of data set: XTT assay, summary over CD56- CRISPR-MCC cell lines. The format is cell-based. Conditions: at high doses; in words. As for the experimental part:
(§2) To evaluate cell viability and cellular metabolic activity, XTT assays were performed according to standard protocols. WaGa, PeTa, H69, H209, H660 cell lines were plated in 3 replicates in a 96-well plate with 5.10^4 cells/well. […] Untreated cells were used as viability reference. Cells treated with 1% Triton X100 were used as cell death positive control. After 4 days, 25 μL XTT reagent at 1 mg/mL (Alfa Aesar, thermo Fisher) with N-methyl dibenzopyrazine methyl sulfate (PMS) activator (25 μM) was added per well and absorbance was measured at 450 nm after 4 h incubation. Absorbance at 620 nm was used as a reference. Three independent experiments have been performed.

Data set [2] concerns solid tumors expressing CD56. As to conditions: several phase I studies; in words; cited from earlier work.
A further data set concerns H209. Description: XTT assay, ADC-mediated cytotoxicity. The format is cell-based. As to conditions: 4 days, read-out: H209 n = 3 IC50. The procedure: as §2
The next data set has as its system WaGa. Description: XTT assay, ADC-mediated cytotoxicity. As to conditions: 4 days, read-out: WaGa n = 3 IC50. The class given is cell-based. The procedure: as §2
The test system of another data set is WaGa CRISPR CD56. Description: XTT assay, ADC-mediated cytotoxicity. Conditions: 4 days, CD56− cells, read-out: WaGa CRISPR CD56 n = 3 IC50. The format is cell-based. As for the experimental part:
as §2

For a further data set, the system named is H69. Kind of data set: XTT assay, ADC-mediated cytotoxicity. The class given is cell-based. As to conditions: 4 days, read-out: H69 n = 3 IC50. As for the experimental part:
as §2

The next data set deals with PeTa. Description: XTT assay, ADC-mediated cytotoxicity. The class given is cell-based. Conditions: 4 days, read-out: PeTa n = 3 IC50. As for the experimental part:
as §2

A further data set concerns MKL-1 CRISPR CD56. Description: XTT assay, ADC-mediated cytotoxicity. The format is cell-based. As to conditions: 4 days, CD56− cells, read-out: MKL-1 CRISPR CD56 n = 3 IC50.
The test system of data set [3] is small cell lung carcinoma. As to conditions: phase II, in combination with chemotherapy (cisplatin-etoposide); in words; cited from earlier work.
The subject of the next data set is neutrophils. Kind of data set: Killing effect on neutrophils (Annexin V / 7-AAD flow cytometry). The format is cell-based, human. Conditions: after 4 h of incubation; CD56 negative cells; at high concentration. The source says:
The neutrophils were isolated directly from whole blood of healthy adult volunteers at the Etablissement Français du Sang, according to institutional research protection guidelines agreement N° CA-REC-2019-188, Centre Val de Loire, France, by negative selection, using the kit (MACSxpress® Whole Blood Neutrophil Isolation Kit, MiltenyBiotech™). The neutrophils were used directly following their isolation and then resuspended in HBSS buffer (1X) (Gibco 15266355), at 1×10^6 cells/mL.
(§3) 5% of CO2. […] All products were tested after 4 days treatment on NK cells and 4 h on monocytes and neutrophils.

A further data set concerns WaGa xenograft. Kind of data set: Efficacy in vivo, WaGa xenograft, ADC 5 mg/kg twice a week. More on the design: species or system NOD/SCID mice. As to conditions: 5 mg/kg IV twice a week; day 30. The procedure: Xenograft mice model: eighteen 7-week-old females NOD/SCID (Janvier Labs) mice were maintained under aseptic conditions. All animal procedures were approved by local ethics committee (Apafis #26772-2020072715262737 v2). WaGa cell line was used for tumor induction, as previously described in [9]. Mice received one subcutaneous injection of 1.10^7 WaGa cells with 10% matrigel on the back. General state and weight were monitored twice a week during the procedure. Tumor volume was measured with a caliper and tumor volume was calculated according to the formula: π/6×width×length×height. […] Mice were sacrificed 30 days after inclusion or when reaching one predefined endpoint (tumor ulceration, weight loss >20%, or prostration). Tumors, heart, lungs, spleen, and liver were removed for macroscopic examination. After dissection, tumor weight and volume were assessed. To detect metastatic spread and potential toxicity of ADCs, whole tumors and organs (heart, lungs, spleen, and liver), were formalin-fixed and paraffin embedded for microscopic evaluation to evaluate architecture changes, inflammatory infiltrate, necrosis, vascular changes, fibrosis and liver steatosis.

Another data set concerns monocytes. Kind of data set: Killing effect on monocytes (Annexin V / 7-AAD flow cytometry). Conditions: after 4 h of incubation; in words. The class given is cell-based, human. The procedure: as §1
Monocytes were isolated from PBMC by positive selection using anti-CD14 MicroBeads (Miltenyi Biotec) according to manufacturer recommendations. Monocytes were cultured in serum-free X-VIVO-15 medium (Lonza) at 1.10^6 cells/mL.
as §3

The subject of data set [4] is CD56+ cell lines (WaGa, PeTa, MKL-1, H69, H209, H660). Description: Flow cytometry binding of Alexa Fluor 750 labelled antibodies, CD56+ cell lines. Conditions: 4° C., 30 minutes, in words. The procedure: (§4) Binding levels of L and mAb-003 have been evaluated on several tumor cell lines: MCC (WaGa, PeTa, MKL-1), SCLC (H69, H209) and prostate cancers (H660) as well as WaGa, PeTa and MKL-1 CD56-knocked out using CRISPR technology.
(§5) The L and mAb-003 were labelled with Alexa Fluor 750 (Alexa Fluor 750 Protein Labelling Kit, Invitrogen) to allow their detection by flow cytometry. The labelled antibodies were incubated with 1.10^5 cells at 4° C. for 30 minutes, then cells were washed twice with PBS supplemented with 1% FCS, and the binding was analysed by Flow cytometry on Cytoflex.

Data set [5] relates to CD56− cells (CRISPR WaGa, PeTa, MKL-1). Description: Flow cytometry binding of Alexa Fluor 750 labelled antibodies, CD56- CRISPR cell lines. Conditions: 4° C., 30 minutes, in words. The procedure: as §4, §5

B1: LM: Lorvotuzumab Mertansine, anti-CD56 ADC coupled to mertansine (DM1) (conjugate, chains of the INN, looked up)
VH: QVQLVESGGGVVQPGRSLRLSCAASGFTFSSFGMHWVRQAPGKGLEWVAYISSGSFTIYYADSVKGRFTISRDNSKNTLYLQMNSLRAEDTAVYYCARMRKGYAMDYWGQGTLVTVSS
VL: DVVMTQSPLSLPVTLGQPASISCRSSQIIIHSDGNTYLEWFQQRPGQSPRRLIYKVSNRFSGVPDRFSGSGSGTDFTLKISRVEAEDVGVYYCFQGSHVPHTFGQGTKVEIK
modifications: mertansine (DM1)
Turning to B1, the “Killing effect on primary NK cells (ADCC)” value with primary NK cells is “ADCC killing effect was observed”. Also, the “Cytotoxicity on CD56− cells” value in [1] is “nonspecific cytotoxicity”. In addition, the Tolerance result in data set [2] is “acceptable tolerance”. Further, the IC50 with H209 is 100 nM; in the data set with WaGa, 75.6 nM; in the data set with WaGa CRISPR CD56 it was 75.6 nM; in the data set with H69 it was 62.6 nM; in the data set on PeTa it was 26.9 nM; with MKL-1 CRISPR CD56, 74.1 nM. The Survival benefit result in data set [3] is given as “did not demonstrate any survival benefit”. In addition, the “Killing effect towards neutrophils” value with neutrophils is “around 15%”.

B2: MF-L-MMAE: L conjugated to MMAE with 6-(2,6-bis(bromomethyl)pyridin-4-yl)amido-N-hexanamide-valine-citrulline-p-aminobenzoyl carbamate (conjugate, chains of the INN, looked up)
VH: B1 VH
VL: B1 VL
modifications: MMAE via val-cit PAB linker
notes: L conjugated to MMAE with 6-(2,6-bis(bromomethyl)pyridin-4-yl)amido-N-hexanamide-valine-citrulline-p-aminobenzoyl carbamate
As to B2, the “Mean end tumor weight” value in the data set with WaGa xenograft is on record as 0.08 g.

B3: L-002: Deglycosylated Lorvotuzumab: treated with PNGase F to remove the glycosylation at Asn297 (antibody, chains of the INN, looked up, V domains shown)
VH: B1 VH
VL: B1 VL
modifications: deglycosylated with PNGase F
notes: Deglycosylated Lorvotuzumab: treated with PNGase F to remove the glycosylation at Asn297
In the case of B3, the “Killing effect on primary NK cells” value in the data set with primary NK cells came to 20%.

B4: LM-002: Deglycosylated Lorvotuzumab Mertansine: treated with PNGase F to remove the glycosylation (conjugate, chains of the INN, looked up)
VH: B1 VH
VL: B1 VL
modifications: mertansine; deglycosylated
notes: Deglycosylated Lorvotuzumab Mertansine: treated with PNGase F to remove the glycosylation
With B4, the “Killing effect on monocytes” value in the data set with monocytes is recorded as “negligible killing effect”.

B5: L: Lorvotuzumab (antibody, chains of the INN, looked up, V domains shown)
VH: B1 VH
VL: B1 VL
For B5, the “Binding to CD56+ cells” value in data set [4] is listed as “lower binding level”. For the same molecule, in the data set on primary NK cells, the “Killing effect on primary NK cells (ADCC)” value is listed as “ADCC killing effect was observed” and the “Killing effect on primary NK cells” value turned out to be 40%. For the same molecule, the “Binding to CD56− cells (CRISPR cells)” value in data set [5] is listed as “binding to CD56− cells”. In addition, in the data set with neutrophils, the “Killing effect towards neutrophils” value is “about 15%”.
